Experimental data from patent US20180036256A1 (ALBERT LUDWIGS UNIVERSIT T FREIBURG, published 2018).
Numbering of substitutions follows the chain as printed. Numbers in names are those of the source. Square brackets hold non-standard residues; d marks the D form. Ends that are not written are not given here. Lys(Me2) = CN(C)CCCC[C@H](N)C(=O)O

Columns and labels:
Flag-LSD1 K114A = biological target: T1, Flag-LSD1 K114A (UniProt O60341 1-852, limits assumed); test: co-immunoprecipitation with anti-Flag antibody from transfected 293T cells without G9A, Western blot decorated with anti-CHD1
T1 construct: Obtained by site directed mutagenesis of Flag-LSD1; not shown: Flag tag

CHD1aa270-443 [1] = biological target: T2, CHD1aa270-443 (UniProt O14646 270-443); test: co-crystal structure of the CHD1 double chromodomain with the LSD1 K114me2 peptide
T2 construct: Recombinant fragment; also called CHD1 double chromodomain fragment
T2 sequence (looked up): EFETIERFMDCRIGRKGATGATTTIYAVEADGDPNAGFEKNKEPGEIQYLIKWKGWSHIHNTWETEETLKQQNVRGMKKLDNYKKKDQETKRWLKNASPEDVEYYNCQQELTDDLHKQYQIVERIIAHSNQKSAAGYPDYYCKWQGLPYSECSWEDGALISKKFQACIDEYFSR
Protocol: Crystals (space group P21212) were grown by sitting drop vapour diffusion at 4° C. in buffer containing 100 mM Hepes pH 7.5, 0.2 M L-proline, 10% (w/v) PEG3350. Prior to flash cooling in liquid nitrogen, crystals were cryoprotected in reservoir solution with 20% (v/v) ethylene glycol. Initial X-ray diffraction data were collected at the PXI beamline at the Swiss Light Source at 1=1.000 Å with a Pilatus detector. […] Data were processed and analyzed with XDS28 and Aimless²⁹. The structure was solved by molecular replacement with Phaser³⁰ using 2B2W as a search model. Manual building and refinement were performed using Coot31 and Refmac532 in the CCP4 program suite³³.

CHD1 D425A = biological target: T3, CHD1 D425A (UniProt O14646 270-443, limits assumed); test: isothermal titration calorimetry (data not shown)
T3 construct: also called D425A mutation in CHD1
T3 sequence (looked up): T2 sequence (looked up) with D156A

CHD1aa270-443 [2] = biological target: T2, CHD1aa270-443; test: isothermal titration calorimetry (data not shown)

B1: endogenous CHD1 (enzyme, human, UniProt O14646 1-1710, looked up)
chain: MNGHSDEESVRNSSGESSQSDDDSGSASGSGSGSSSGSSSDGSSSQSGSSDSDSGSESGSQSESESDTSRENKVQAKPPKVDGAEFWKSSPSILAVQRSAILKKQQQQQQQQQHQASSNSGSEEDSSSSEDSDDSSSEVKRKKHKDEDWQMSGSGSPSQSGSDSESEEEREKSSCDETESDYEPKNKVKSRKPQNRSKSKNGKKILGQKKRQIDSSEEDDDEEDYDNDKRSSRRQATVNVSYKEDEEMKTDSDDLLEVCGEDVPQPEEEEFETIERFMDCRIGRKGATGATTTIYAVEADGDPNAGFEKNKEPGEIQYLIKWKGWSHIHNTWETEETLKQQNVRGMKKLDNYKKKDQETKRWLKNASPEDVEYYNCQQELTDDLHKQYQIVERIIAHSNQKSAAGYPDYYCKWQGLPYSECSWEDGALISKKFQACIDEYFSRNQSKTTPFKDCKVLKQRPRFVALKKQPSYIGGHEGLELRDYQLNGLNWLAHSWCKGNSCILADEMGLGKTIQTISFLNYLFHEHQLYGPFLLVVPLSTLTSWQREIQTWASQMNAVVYLGDINSRNMIRTHEWTHHQTKRLKFNILLTTYEILLKDKAFLGGLNWAFIGVDEAHRLKNDDSLLYKTLIDFKSNHRLLITGTPLQNSLKELWSLLHFIMPEKFSSWEDFEEEHGKGREYGYASLHKELEPFLLRRVKKDVEKSLPAKVEQILRMEMSALQKQYYKWILTRNYKALSKGSKGSTSGFLNIMMELKKCCNHCYLIKPPDNNEFYNKQEALQHLIRSSGKLILLDKLLIRLRERGNRVLIFSQMVRMLDILAEYLKYRQFPFQRLDGSIKGELRKQALDHFNAEGSEDFCFLLSTRAGGLGINLASADTVVIFDSDWNPQNDLQAQARAHRIGQKKQVNIYRLVTKGSVEEDILERAKKKMVLDHLVIQRMDTTGKTVLHTGSAPSSSTPFNKEELSAILKFGAEELFKEPEGEEQEPQEMDIDEILKRAETHENEPGPLTVGDELLSQFKVANFSNMDEDDIELEPERNSKNWEEIIPEDQRRRLEEEERQKELEEIYMLPRMRNCAKQISFNGSEGRRSRSRRYSGSDSDSISEGKRPKKRGRPRTIPRENIKGFSDAEIRRFIKSYKKFGGPLERLDAIARDAELVDKSETDLRRLGELVHNGCIKALKDSSSGTERTGGRLGKVKGPTFRISGVQVNAKLVISHEEELIPLHKSIPSDPEERKQYTIPCHTKAAHFDIDWGKEDDSNLLIGIYEYGYGSWEMIKMDPDLSLTHKILPDDPDKKPQAKQLQTRADYLIKLLSRDLAKKEALSGAGSSKRRKARAKKNKAMKSIKVKEEIKSDSSPLPSEKSDEDDDKLSESKSDGRERSKKSSVSDAPVHITASGEPVPISEESEELDQKTFSICKERMRPVKAALKQLDRPEKGLSEREQLEHTRQCLIKIGDHITECLKEYTNPEQIKQWRKNLWIFVSKFTEFDARKLHKLYKHAIKKRQESQQNSDQNSNLNPHVIRNPDVERLKENTNHDDSSRDSYSSDRHLTQYHDHHKDRHQGDSYKKSDSRKRPYSSFSNGKDHRDWDHYKQDSRYYSDREKHRKLDDHRSRDHRSNLEGSLKDRSHSDHRSHSDHRLHSDHRSSSEYTHHKSSRDYRYHSDWQMDHRASSSGPRSPLDQRSPYGSRSPFEHSVEHKSTPEHTWSSRKT
notes: Endogenous protein in cell extracts; also called endogenously expressed CHD1
binding result (Flag-LSD1 K114A): no binding

B2: LSD1aa108-119 K114me2 peptide (peptide, UniProt O60341 108-119, looked up)
peptide: RRTSRR[Lys(Me2)]RAKVE
notes: range 108-119; Peptide used for co-crystallisation; only residues 110-116 were modelled in the electron density; also called LSD1aa110-116 K114me2 (residues modelled in the structure); LSD1 K114me2 peptide
binding result (CHD1aa270-443 [1]): binds

B3: LSD1aa104-127 K114me2 peptide (peptide, UniProt O60341 104-127, looked up)
peptide: TPEGRRTSRR[Lys(Me2)]RAKVEYREMDESL
notes: range 104-127; Synthetic peptide, used on the microarray and in ITC; also called LSD1 K114me2 peptide; dimethylated LSD1 peptide
binding result (CHD1 D425A): no binding

TPEGRRTSRA[Lys(Me2)]RAKVEYREMDESL (peptide, UniProt O60341 104-127, looked up, also called LSD1 R113A K114me2 peptide) [LSD1 K114me2 peptide with R113 mutated to alanine]
binding result (CHD1aa270-443 [2]): no binding
